Data: the RNAGym collection of RNA variant scans (doi:10.7554/elife.80360)

B1: CPEB3 Ribozyme (parent)
chain: GGGGGCCACAGCAGAAGCGUUCACGUCGCGGCCCCUGUCAGAUUCUGGUGAAUCUGCGAAUUCUGCUGU

Variants of: B1
Test: self-cleavage, relative activity (ratio to wild type); higher = more cleavage; co-transcriptional

Variant	self-cleavage
GGUGGCCACAGCAGAAGCGUUGACGUCGCGGCCCCUGUCAGAUUCUGGUGAAUCUGCGAAUUCUGCUGU [G3U C22G]	0.0464
GGUGGCCACAGCAGAAGCGUUUACGUCGCGGCCCCUGUCAGAUUCUGGUGAAUCUGCGAAUUCUGCUGU [G3U C22U]	0.047
GGUGGCCACAGCAGAAGCGUUAACGUCGCGGCCCCUGUCAGAUUCUGGUGAAUCUGCGAAUUCUGCUGU [G3U C22A]	0.051
GGUGACCACAGCAGAAGCGUUCACGUCGCGGCCCCUGUCAGAUUCUGGUGAAUCUGCGAAUUCUGCUGU [G3U G5A]	0.0231
GGUGCCCACAGCAGAAGCGUUCACGUCGCGGCCCCUGUCAGAUUCUGGUGAAUCUGCGAAUUCUGCUGU [G3U G5C]	0.0208
GGUGGCCACAGCACAAGCGUUCACGUCGCGGCCCCUGUCAGAUUCUGGUGAAUCUGCGAAUUCUGCUGU [G3U G14C]	0.0411
GGUGGCCACAGCAUAAGCGUUCACGUCGCGGCCCCUGUCAGAUUCUGGUGAAUCUGCGAAUUCUGCUGU [G3U G14U]	0.0458
GGUGGCCACAGCAGAAGCAUUCACGUCGCGGCCCCUGUCAGAUUCUGGUGAAUCUGCGAAUUCUGCUGU [G3U G19A]	0.0413
GGUGGCCACAGCAGAAGCUUUCACGUCGCGGCCCCUGUCAGAUUCUGGUGAAUCUGCGAAUUCUGCUGU [G3U G19U]	0.0853
GGUGGCCACAGCAGAAGCGUUCGCGUCGCGGCCCCUGUCAGAUUCUGGUGAAUCUGCGAAUUCUGCUGU [G3U A23G]	0.0915
GGUGGCCACAGCAGAAGCGUUCACGUCGCGGCCCCUGUAAGAUUCUGGUGAAUCUGCGAAUUCUGCUGU [G3U C39A]	0.0589
GGUGGCCACAGCAGAAGCGUUCACGUCGCGGCCCCUGUUAGAUUCUGGUGAAUCUGCGAAUUCUGCUGU [G3U C39U]	0.043
GGUGGCCACAGCAGAAGCGUUCACGUCGCGGCCCCUGUGAGAUUCUGGUGAAUCUGCGAAUUCUGCUGU [G3U C39G]	0.0714
GGUGGCCACACCAGAAGCGUUCACGUCGCGGCCCCUGUCAGAUUCUGGUGAAUCUGCGAAUUCUGCUGU [G3U G11C]	0.0634
GGUGGGCACAGCAGAAGCGUUCACGUCGCGGCCCCUGUCAGAUUCUGGUGAAUCUGCGAAUUCUGCUGU [G3U C6G]	0.0291
GGUGGUCACAGCAGAAGCGUUCACGUCGCGGCCCCUGUCAGAUUCUGGUGAAUCUGCGAAUUCUGCUGU [G3U C6U]	0.0423
GGUCGCCACAGCAGAAGCGUUCACGUCGCGGCCCCUGUCAGAUUCUGGUGAAUCUGCGAAUUCUGCUGU [G3U G4C]	0.0209
GGUAGCCACAGCAGAAGCGUUCACGUCGCGGCCCCUGUCAGAUUCUGGUGAAUCUGCGAAUUCUGCUGU [G3U G4A]	0.0885
GGUGGCCACAGCAGAAGCGUUCACGUCGCGGCCCCUGUCAAAUUCUGGUGAAUCUGCGAAUUCUGCUGU [G3U G41A]	0.0442
GGUGGCCACAGCAGAAGCGUUCACGUCGCGGCCCCUGUCACAUUCUGGUGAAUCUGCGAAUUCUGCUGU [G3U G41C]	0.0828

Variant	self-cleavage
GGUGGCCACAGCAGAAGCGUUCACGUCGCGGCCCCUGUCAUAUUCUGGUGAAUCUGCGAAUUCUGCUGU [G3U G41U]	0.0372
GGUGGCCACAGCAGAAGCGUUCACCUCGCGGCCCCUGUCAGAUUCUGGUGAAUCUGCGAAUUCUGCUGU [G3U G25C]	0.0349
GGUGGCCACAGCAGAAGCGUUCACGUCGCGGCCCCUAUCAGAUUCUGGUGAAUCUGCGAAUUCUGCUGU [G3U G37A]	0.0344
GGUGGCCACAGCAGAAGCGUUCACGUCGCGGCCCCUCUCAGAUUCUGGUGAAUCUGCGAAUUCUGCUGU [G3U G37C]	0.035
GGUGGCCACAGCAGAAGCGUUCACGUCGCGGCCCCUUUCAGAUUCUGGUGAAUCUGCGAAUUCUGCUGU [G3U G37U]	0.0515
GGUGGCCACAGAAGAAGCGUUCACGUCGCGGCCCCUGUCAGAUUCUGGUGAAUCUGCGAAUUCUGCUGU [G3U C12A]	0.0925
GGUGGCCACAGCAGAAGCGUUCACGUCGCGGCCCCUGUCAGAUUCUGGUGAAUCUGCGAAUUCUGUUGU [G3U C66U]	0.151
GGUGGCCACAGCAGAAGCGUUCACGUCGCGGCCCCUGUCAGAUUCUGGUGAAUCUGCGAAUUCUGGUGU [G3U C66G]	0.145
GGUGGCCACAGCAGAAGCGUUCACGUCGCGGCCACUGUCAGAUUCUGGUGAAUCUGCGAAUUCUGCUGU [G3U C34A]	0.687
GGUGGCCACAGCAGAAGCGUUCACGUCGCGGCCUCUGUCAGAUUCUGGUGAAUCUGCGAAUUCUGCUGU [G3U C34U]	0.381
GGUGGCUACAGCAGAAGCGUUCACGUCGCGGCCCCUGUCAGAUUCUGGUGAAUCUGCGAAUUCUGCUGU [G3U C7U]	0.0677
GGUGGCAACAGCAGAAGCGUUCACGUCGCGGCCCCUGUCAGAUUCUGGUGAAUCUGCGAAUUCUGCUGU [G3U C7A]	0.0696
GGUGGCCACAGCAGAAGCGUUCACGUCGCGGCCCCUGUCAGAUUCUGGUGAAUCUGCGUAUUCUGCUGU [G3U A59U]	0.0422
GGUGGCCACAGCAGAAGCGUUCACGUCGCGGCCCCUGUCAGAUUCUGGUGAAUCUGCGCAUUCUGCUGU [G3U A59C]	0.0549
GGUGGCCACAGCAGAAGCGUUCACGUCGCGGCCCCUGUCAGAUUCUGGUGCAUCUGCGAAUUCUGCUGU [G3U A51C]	0.105
GGUGGCCACAGCAGAAGCGUUCACGUCGCGGCCCCUGUCAGAUUCUGGUGUAUCUGCGAAUUCUGCUGU [G3U A51U]	0.17
GGUGGCCACAGCAGAAGCGUUCACGUCGCGGCCCCUGUCAGAUUCUGGUGAAUAUGCGAAUUCUGCUGU [G3U C54A]	0.0729
GGUGGCCACAGCAGAAGCGUUCACGUCGCGGCCCCUGUCAGAUUCUGGUGAAUGUGCGAAUUCUGCUGU [G3U C54G]	0.0746
GGUGGCCACAGCAGAAGCGUUCACGUCGCGGCCCCUGUCAGAUUCUGGUGAAUUUGCGAAUUCUGCUGU [G3U C54U]	0.148
